{"source": "paper PMC12733253", "about": "“NFE2 Truncation Mutants Protect Wild-Type NFE2 from ITCH-Dependent Degradation” (International Journal of Molecular Sciences, 2025)", "binders": {"B1": {"name": "wild-type nuclear factor erythroid 2 (NFE2), HA-tagged (natural protein, human, UniProt Q16621 1-373, looked up)", "chain": "MSPCPPQQSRNRVIQLSTSELGEMELTWQEIMSITELQGLNAPSEPSFEPQAPAPYLGPPPPTTYCPCSIHPDSGFPLPPPPYELPASTSHVPDPPYSYGNMAIPVSKPLSLSGLLSEPLQDPLALLDIGLPAGPPKPQEDPESDSGLSLNYSDAESLELEGTEAGRRRSEYVEMYPVEYPYSLMPNSLAHSNYTLPAAETPLALEPSSGPVRAKPTARGEAGSRDERRALAMKIPFPTDKIVNLPVDDFNELLARYPLTESQLALVRDIRRRGKNKVAAQNCRKRKLETIVQLERELERLTNERERLLRARGEADRTLEVMRQQLTELYRDIFQHLRDESGNSYSPEEYALQQAADGTIFLVPRGTKMEATD"}}, "molecular_target": "itchy E3 ubiquitin protein ligase (ITCH), wild type, MYC-tagged (UniProt Q96J02-2 1-862)", "sequence (Q96J02 other isoform, or with tags, fused parts or gaps)": "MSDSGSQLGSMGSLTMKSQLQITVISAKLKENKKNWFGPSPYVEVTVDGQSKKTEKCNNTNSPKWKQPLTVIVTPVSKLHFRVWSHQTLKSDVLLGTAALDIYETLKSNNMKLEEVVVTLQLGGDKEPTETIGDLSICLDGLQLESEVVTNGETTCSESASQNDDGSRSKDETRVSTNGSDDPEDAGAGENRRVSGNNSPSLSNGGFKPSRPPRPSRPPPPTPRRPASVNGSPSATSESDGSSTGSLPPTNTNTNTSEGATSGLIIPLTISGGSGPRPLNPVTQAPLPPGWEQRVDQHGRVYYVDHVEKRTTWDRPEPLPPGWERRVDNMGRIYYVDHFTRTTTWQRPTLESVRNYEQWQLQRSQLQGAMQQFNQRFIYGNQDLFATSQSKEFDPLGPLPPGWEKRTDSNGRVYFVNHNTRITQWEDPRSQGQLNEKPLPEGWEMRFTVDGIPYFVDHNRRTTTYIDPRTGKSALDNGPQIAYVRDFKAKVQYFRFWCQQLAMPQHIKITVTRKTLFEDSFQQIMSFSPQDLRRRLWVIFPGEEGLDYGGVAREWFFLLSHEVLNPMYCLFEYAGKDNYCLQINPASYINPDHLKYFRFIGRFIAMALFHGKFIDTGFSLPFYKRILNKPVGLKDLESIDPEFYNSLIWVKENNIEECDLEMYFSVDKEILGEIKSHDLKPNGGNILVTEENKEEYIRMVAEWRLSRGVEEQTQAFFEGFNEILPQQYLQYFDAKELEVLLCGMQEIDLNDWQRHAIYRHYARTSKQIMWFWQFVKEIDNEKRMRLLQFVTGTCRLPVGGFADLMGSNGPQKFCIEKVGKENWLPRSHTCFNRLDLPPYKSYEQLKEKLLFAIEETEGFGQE", "assay": "cell-based or functional assay", "data": [{"binder": "B1", "values": [{"measurement": "NFE2 half-life in a cycloheximide chase, HEK-293T co-transfected with wt NFE2 and wt ITCH (approximately 3.5 h with empty vector; 6.5 h with inactive ITCH-C830A)", "result": "~2", "unit": "h"}]}]}
